Laboratory results as given in patent US20120225071A1 (Hoffmann-La Roche, published 2012).

T1: human ANGPT2 (R&D Systems) (human, UniProt O15123 68-496, limits assumed)
T1 construct: Bought reagent; also called hANGPT2; Angiopoietin-2
T1 sequence (looked up): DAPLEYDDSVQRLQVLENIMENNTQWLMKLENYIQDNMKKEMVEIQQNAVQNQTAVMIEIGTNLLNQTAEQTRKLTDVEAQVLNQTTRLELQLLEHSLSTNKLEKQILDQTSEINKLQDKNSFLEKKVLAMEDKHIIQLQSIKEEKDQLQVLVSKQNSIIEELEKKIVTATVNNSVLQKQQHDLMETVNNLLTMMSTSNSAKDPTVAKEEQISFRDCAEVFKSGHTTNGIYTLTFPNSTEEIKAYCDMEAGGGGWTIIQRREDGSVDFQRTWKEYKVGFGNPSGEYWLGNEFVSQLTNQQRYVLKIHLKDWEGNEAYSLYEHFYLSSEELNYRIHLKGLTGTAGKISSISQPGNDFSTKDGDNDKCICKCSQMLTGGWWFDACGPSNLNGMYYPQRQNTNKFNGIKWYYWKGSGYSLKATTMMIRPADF

B1: monospecific, bivalent <ANGPT2> wildtype antibody (antibody, V domains shown)
VH: EVQLVQSGGGVVQPGRSLRLSCAASGFTFSSYGMHWVRQAPGKGLEWVSYISSSGSTIYYADSVKGRFTISRDNAKNSLYLQMNSLRAEDTAVYYCARDLLDYDILTGYGYWGQGTLVTVSS
VL: not shown
notes: Human IgG1/kappa antibody described in WO 2006/045049; also called wildtype <ANGPT2> antibody; <Ang-2> control antibody
B2: wildtype <IGF-1R> antibody (antibody, V domains shown)
VH: QVELVESGGGVVQPGRSQRLSCAASGFTFSSYGMHWVRQAPGKGLEWVAIIWFDGSSTYYADSVRGRFTISRDNSKNTLYLQMNSLRAEDTAVYFCARELGRRYFDLWGRGTLVSVSS
VL: EIVLTQSPATLSLSPGERATLSCRASQSVSSYLAWYQQKPGQAPRLLIYDASKRATGIPARFSGSGSGTDFTLTISSLEPEDFAVYYCQQRSKWPPWTFGQGTKVESKR
notes: Human IgG1/kappa antibody described in WO 2005/005635; also called <IGF-1R> wildtype antibody; <IGF-1R> control antibody

Key:
[1] = biological target: T2, recombinant human IGF-1R on I24 cells (NIH3T3 cells expressing recombinant human IGF-1R) (human, UniProt P08069 31-1367); assay: cellular FACS IGF-1R-ANGPT2 bridging assay on I24 cells; antibody on cells, washed, then ANGPT2, detected with biotinylated anti-ANGPT2 and Streptavidin-PE
T2 construct: whole, on cells; also called IGF-1R in I24 cells
Protocol: (§1) The assay principle is depicted in FIG. 10.
(§2) Briefly, 5×10E5 I24 cells per FACS tube were incubated with total purified antibody mix and incubated on ice for 1 h (titration 160 μg/ml mix). The respective purified antibodies wildtype <IGF-1R> and <ANGPT2> were applied to the I24 cells as controls. Unbound antibody was washed away with 4 ml ice cold PBS (Gibco)+2% FCS (Gibco), cells were centrifuged (5 min at 400 g) and bound bispecific antibody was detected with 50 μl 2 μg/mL human ANGPT2 (R&D Systems) for 1 h on ice. Subsequently, unbound ANGPT2 was washed away once or twice with 4 ml ice cold PBS (Gibco)+2% FCS (Gibco), cells were centrifuged (5 min at 400 g) and bound ANGPT2 was detected with 50 μl 5 μg/mL <ANGPT2>mIgG1-Biotin antibody (BAM0981, R&D Systems) for 45 min on ice; alternatively, cells were incubated with 50 μl 5 μg/mL mIgG1-Biotin-Isotype control (R&D Systems). Unbound detection antibody was washed away with 4 ml ice cold PBS (Gibco)+2% FCS (Gibco), cells were centrifuged (5 min at 400 g) and bound detection antibody was detected with 50 μl 1:400 Streptavidin-PE conjugate (Invitrogen/Zymed) for 45 min on ice protected from light. Unbound Streptavidin-PE conjugate was washed away with 4 ml ice cold PBS+2% FCS. […]

[2] = biological target: T1, human ANGPT2 (R&D Systems); assay: cellular FACS IGF-1R-ANGPT2 bridging assay on I24 cells; antibody on cells, then ANGPT2, detected with biotinylated anti-ANGPT2 and Streptavidin-PE
Protocol: as §1, §2

Row | Binder | binding result [1] | binding result [2]
1 | B1 | no binding | 
2 | B2 |  | no binding (tested: 2 µg/mL human ANGPT2)
